The results in this text go back to PMC10308935 (Journal of Virology, 2023).

Test [1] concerns the target SARS-CoV-2 Omicron BA.2 spike receptor-binding domain (SARS-CoV-2 Omicron BA.2, strain). In words: BLI. A general note: Biolayer interferometry detects binding as a change in optical thickness at a sensor tip.
The target in test [2] is SARS-CoV-2 Omicron BA.5 spike receptor-binding domain (SARS-CoV-2 Omicron BA.5, N440K | L452R | F486V). Description: BLI.

B1: MO1 monoclonal antibody (recombinant human IgG) (antibody, V domains shown)
VH: EVQLVESGGGMVQPGRSLRLSCAASGFTFDDYAMHWVRQIPGKGLEWVSGISWNSGDIGYADSVKGRFTISRDNAKNSLHLQMNSLRAEDTALYYCAKDKTYDSPGYFLNSFDYWGQGTLVTVSS
VL: DIQMTQSPSSLSASVGDRVTITCRASQGISSYLVWYQQKPGKAPKFLIYAASTLQSGVPSRFSGSGSGTDFTLTISSLQPEDFATYYCQQLYSYPITFGQGTRLEIK
Broadly, the Kd is the equilibrium constant for the complex coming apart. Lower therefore signals a tighter complex. B1: the dissociation constant (Kd) in test [1] was 3.3 nM; in test [2], 11 nM.
